Residues, ends and D or L forms follow the SMILES beside them. No end group written: not given here. *: point of attachment. NH(β-GlcNAc) = CC(=O)N[C@@H]1[C@@H](O)[C@H](O)[C@@H](CO)O[C@H]1N*; acetylglucosamine = N-acetylglucosamine

This assay addresses yeast alpha-glucosidase (Saccharomyces cerevisiae, UniProt P53341). Format: biochemical. Here is the method:
The enzyme of alpha-glucosidase activity is according to the procedure as described by Sigma Chemical Company, St. Louis, Mo. Routinely, the enzyme reaction mixture contains 10 mM maltose and 50 ul of purified alpha-glucosidase or 0.02 units of yeast alpha-glucosidase in a final volume of 60 ul of 25 mM sodium acetate buffer, pH 5.6. The reaction mixture is incubated at 37° C. for 60 minutes, and the production of glucose is determined by the glucose oxidase reagent (Worthington Statzyme Glucose 500) in accordance with recommendation of Worthington Biochemical Corporation.

Sequence of yeast alpha-glucosidase (P53341 whole entry): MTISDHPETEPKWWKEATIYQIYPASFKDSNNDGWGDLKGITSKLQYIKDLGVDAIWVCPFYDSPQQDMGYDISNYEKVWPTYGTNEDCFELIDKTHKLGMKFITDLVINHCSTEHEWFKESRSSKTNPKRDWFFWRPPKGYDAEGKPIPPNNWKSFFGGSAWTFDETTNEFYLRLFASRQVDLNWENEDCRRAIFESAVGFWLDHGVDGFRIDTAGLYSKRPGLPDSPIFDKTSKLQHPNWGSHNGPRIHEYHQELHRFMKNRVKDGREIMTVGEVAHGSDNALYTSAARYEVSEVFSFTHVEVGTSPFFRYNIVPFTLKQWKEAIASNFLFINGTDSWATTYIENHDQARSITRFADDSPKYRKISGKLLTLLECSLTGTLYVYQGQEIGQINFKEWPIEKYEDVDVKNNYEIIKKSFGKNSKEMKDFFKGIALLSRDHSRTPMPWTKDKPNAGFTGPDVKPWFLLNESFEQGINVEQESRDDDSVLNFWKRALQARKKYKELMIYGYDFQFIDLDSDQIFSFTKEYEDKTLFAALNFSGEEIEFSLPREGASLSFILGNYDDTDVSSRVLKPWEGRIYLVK

As to `CC(=O)N[C@@H]1[C@@H](O)[C@H](O)[C@@H](CO)O[C@H]1NC(=O)C[C@H](NC(=O)CNC(=O)CN)C(=O)N[C@@H](CCCCN)C(=O)O` [synthetic glycopeptide, Gylcyl-glycl-(NB-2-(acetylamino)-deoxy-2-B-pyranosyl)-asparaginyl-lysine] (H-GGD(NH(β-GlcNAc))K-OH), under “10 ug of peptide, 50 mM acetate buffer pH 5.6, compared to control”, the “inhibitory effect on the alpha-glucosidase activity” value was “about 90%”.

With “glycine-glycine-asparagine-pyridoxyl-lysine acetylglucosamine”, the “increase in inhibitory effect on alpha-glucosidase” value (glycopeptide preincubated with pyridoxal 5-phosphate versus unmodified glycopeptide) stood at 50%.

With “glycopeptide: bioactive fragment from Lys-C digestion of CON-1: glycine-glycine-asparagine-lysine, asparagine glycosylated by acetylglucosamine (GGN(acetylglucosamine)K)”, under “compared to the nontreated glycopeptide”, the “inhibition of alpha-glucosidase lost after N-acetylglucosaminidase treatment” value was “about 20%”. Besides, the “change of inhibitory activity after removal of acetylglucosamine (in words)” value (incubation with N-acetylglucosaminidase) was “marked reduction in inhibitory activity”.

With “acetoacetate glycopeptide complex: reaction product of the putative glycopeptide with acetoacetate reagent (GGN(acetylglucosamine)K; also: reacted with acetoacetate reagent (glycine residue))”, the “inhibitory effect on alpha-glucosidase activity (in words)” value (0.02 units of yeast alpha-glucosidase) was “loss of inhibitory effect of the glycopeptide itself but is able to stimulate the alpha-glucosidase activity”.
